Measured values as given in the supplement of paper PMC12042874.
± gives the uncertainty stated by the source.

Assay: amyloid nucleation score (Sup35N fusion, yeast selection) (log enrichment); library NNK2; higher = more nucleation; inactive = no reads after selection
Procedure, shortened: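 Sup35N fusions to peptides of 20 random codons were expressed in psi-negative yeast, induced 24 hours with 100 μM copper sulfate, and grown 7 days at 30°C on medium lacking adenine and uracil. Input and output plasmid inserts were sequenced by Illumina. The nucleation score is the DiMSum log enrichment of output over input reads, centred on the mode score of non-aggregating sequences. Sequences with under 100 input reads were excluded.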

Row | Substance | amyloid nucleation score
1 | WNNYVLGYEVNRMCLLDRSV | inactive
2 | LLCMVIMVGFYSRSAGNTDQ | 0.696 ± 0.6
3 | NYFGKLLWLSLHDTCIVTF | inactive
4 | DFFYTYGGIYGYWSFRHGIV | -1.24 ± 0.62
5 | IRCCAWFDLVSESRSRGTWT | 5.43 ± 0.072
6 | HISVISTNEFTRIRASAAHA | 1.38 ± 0.67
7 | SEWSQKRGLVYTVQEFQKLY | inactive
8 | YIGLVSS | -0.052 ± 0.65
9 | YACFDCIIIQAWKFSIGTGL | 3.7 ± 0.051
10 | NCWRNGCVQLFRWY | 5.15 ± 0.092
11 | GCIGGHRFYSPRSNSVFEVG | 3.44 ± 0.081
12 | AYYYVLRFRCLFTFYPQLTA | -0.428 ± 0.39
13 | IFVCNMFVSYNSGNSGWCSV | 7.675 ± 0.042
14 | KCYSYCLLAL | -0.202 ± 1.1
15 | SWAQRCDGGMYMRDCWLMGS | 0.361 ± 0.33
16 | IAGYGVHTLVQCVV | 0.082 ± 1
17 | LLMVRVGRSQVRSNKNRH | 5.984 ± 0.054
18 | WLCDWLASIWCMFGLSGCSR | 0.232 ± 0.35
19 | WMWPPMPLGKVAQRGLAVVC | 1.28 ± 0.22
20 | KYSVMLALLEPIRWTWLIQF | 0.323 ± 0.62
21 | GHMVYRTNVGRSV | 0.187 ± 0.74
22 | TDLVDPGGTKHRKDS | 0.523 ± 0.53
23 | HKCTSAV | 0.229 ± 0.61
24 | TWRYRKMFASASFA | 0.33 ± 0.16
25 | DNCLTGIEWI | -1.83 ± 1
26 | KVARGVCYCRFSL | inactive

Row | Substance | amyloid nucleation score
27 | GPKPGDVSYVYKSCRTHNSP | 0.53 ± 0.29
28 | FSSSEHVFQVDGGFDKNRPI | -1.47 ± 0.78
29 | RLHGGHLRRM | 0.902 ± 0.21
30 | MVEHLCNNHSRFLYSAWGIE | -0.641 ± 0.56
31 | RMTEA | 2.32 ± 0.21
32 | TCSCSLVFYMILARG | -0.053 ± 0.63
33 | FKICGTFDAFKKL | inactive
34 | WVMAISLADFVLYLNWSLYR | inactive
35 | MIIVTAY | -0.073 ± 0.49
36 | KVKSWCTGLLGA | 0.075 ± 0.76
37 | GVYLGSPSYVDLSVALFSIV | 0.073 ± 0.29
38 | LLACLKGTSGAGRIYAYLMT | -0.096 ± 0.3
39 | CDPWQGYRWLP | -0.665 ± 0.37
40 | CLWHWSNGRNVGKIYLFAVT | -0.377 ± 0.24
41 | SIQRTVS | 0.473 ± 0.2
42 | FPLVWA | 0.416 ± 0.22
43 | NSWASPTVVFIRPVHMLLVL | 0.158 ± 0.25
44 | YITRFLPQVTVWQRVFCCSY | 7.454 ± 0.039
45 | ALRLLSFKVMVVEDYLTMTL | 2.91 ± 0.098
46 | IETNTSGSPIVPKDDLYNSY | -0.672 ± 0.55
47 | TVIRRIYFRRPGRSNMSCTN | -0.067 ± 0.65
48 | VGGWSLYSSPVLLRIWFKRH | 0.087 ± 0.79
49 | YIDALSIVFCVAVIGHTPTW | 8.753 ± 0.039
50 | RWLRPRSFWMDVVGSKI | 1.83 ± 0.11
51 | SVLKYS | -0.334 ± 0.63
52 | AQVKKLDRARCRFQRVV | -1.4 ± 0.78

Row | Substance | amyloid nucleation score
53 | FNNMWYSFKQSLSACSVGRR | inactive
54 | IFVVCLGMDTVYLIGYYSPA | -1.25 ± 0.78
55 | DGNAVCDILLLTSIMVSVSA | -0.551 ± 0.54
56 | FLRVRP | -0.719 ± 0.29
57 | IIHDLSSFRKCSLHPDIGSS | -0.373 ± 0.37
58 | LLFPLGISHAYMGRFFFRMV | -0.266 ± 1.1
59 | VKASFS | 0.798 ± 0.44
60 | YVSDYG | 0.199 ± 0.8
61 | YGKKCLSKAKKSTKISLPG | 0.016 ± 1.1
62 | NAEFIPGYMISVWTSIATIT | 0.359 ± 0.42
63 | VSVDSVDAIFRK | 0.489 ± 0.64
64 | NVFLRPSFRGVHK | 2.05 ± 0.092
65 | SYCVWCLYTSLLTLGQSASI | 0.163 ± 0.33
66 | SFGFVAMMIVRCANFRASPV | 0.688 ± 0.81
67 | PHDGRNWFSVSDLMIGSDVG | 0.505 ± 0.36
68 | ENSLVYI | inactive
69 | ELLSYRRSIKYCMGLEEPWA | -0.119 ± 0.49
70 | TIQGLFRFSADVRTCAFMGS | 2.33 ± 0.15
71 | RLCVILCQVMTWRMAVSILE | 0.228 ± 0.56
72 | FGFNCMGWYRDCAVTSTWGA | 0.809 ± 0.31
73 | NITDDRMSSWIRFVILVSTV | -0.074 ± 0.56
74 | AWEAPPYMCRDILRSWRGRL | 0.757 ± 0.51
75 | SFSVVGNHHVCMDYDMVLNG | 0.315 ± 0.32
76 | SCFVLLSSVDSLCMQDHF | 0.311 ± 0.43
77 | RRWQTTS | inactive
78 | LCCRCIKVIAALKLNIENHQ | 3.65 ± 0.095

Row | Substance | amyloid nucleation score
79 | RLYIIIRFGIVHVT | -0.078 ± 0.21
80 | IFSISNFAITVSNTLTV | 1.06 ± 0.32
81 | CLLYDQGFWQAGVLNVVAAR | -0.085 ± 0.29
82 | LNYYWRFMPGGIGITGSSLS | 1.72 ± 0.12
83 | GNNGRFSWVY | 0.556 ± 0.37
84 | LHQTV | 0.79 ± 0.57
85 | CELEGWSVGSRVNLLILIR | -0.213 ± 1.1
86 | DRQTATSEMVSNRLISFRLV | 0.145 ± 0.19
87 | LYMCSSVLWVGLSLV | 0.851 ± 0.56
88 | EGNRNEVSFYVMFSAVPSGL | 9.221 ± 0.059
89 | LIYIICVSLFSRVVMVIANF | -1.25 ± 0.78
90 | LHDLDWYSGILIQFDSDMRW | 1.37 ± 0.15
91 | YWVGIDRHFHGRQYCKAGA | 1.11 ± 0.45
92 | MFYASFGVKL | 0.655 ± 0.65
93 | TSKRVFSRVESGTQVLGNEG | -0.053 ± 0.5
94 | GMFLWLFLVPRYHPTSTELG | 0.219 ± 1
95 | ASLIRGATKGQTVCEMALSG | -0.07 ± 0.27
96 | IPFQEWNSMFIKLSELTVES | 3.97 ± 0.058
97 | LHGQVYMIQG | 2.17 ± 0.13
98 | PTRKSIYSLPRARSLIPQNT | -1.26 ± 1.1
99 | WERVKYLLDYL | inactive
100 | CRLGLLF | 0.767 ± 0.66
101 | DGSNIFLLV | -0.482 ± 0.56
102 | FFIWLPYRSTTINRISPCWG | -1.94 ± 0.54
103 | INYSFWRSHSSP | 4.42 ± 0.099
104 | IFSTFCFLSAILFSIFPYEP | inactive

Row | Substance | amyloid nucleation score
105 | APSGRHFFTFTPC | 0.605 ± 0.36
106 | SWKGHIISSAHQQLESPSLW | 0.345 ± 0.23
107 | IWRCNPG | 1.04 ± 0.68
108 | MLHSRLAREMHTLVILFFNK | 0.05 ± 0.49
109 | ISLRMKEHVICSLVPFMSQI | 0.664 ± 0.22
110 | YYSISGISFWFSK | 8.381 ± 0.06
111 | IPEVQCIKFMSYSGCHIQAL | inactive
112 | SNHLIVMISVFYFKSVRI | inactive
113 | KTKVL | 0.348 ± 0.65
114 | PVLCVYFSIYN | 8.151 ± 0.054
115 | YESGVSCFFVYVMNTYHIWG | 5.17 ± 0.097
116 | RALVSRCRVCADKSPASSCD | -0.411 ± 0.45
117 | STWDGWGFSWISFL | -0.635 ± 1
118 | TQFISFRYYHNVDEIHYVVN | inactive
119 | FSSQFHLRAYNTIRCSLDDF | 0.534 ± 0.8
120 | VIKFFNLREQFFVIIMAYGF | inactive
121 | SGSIVRGLCVVFSCVFKGSL | -0.874 ± 0.56
122 | ICGVKRKKNVILSYFISMEY | inactive
123 | VYQIRKV | -0.523 ± 0.33
124 | GEDHYIPQLFDGSVIILART | 0.117 ± 0.79
125 | NYVCWISGTTGLVM | -0.319 ± 0.76
126 | NQCISDPNSCSSCALL | inactive
127 | KALYYY | inactive
